Here are results for 5 sequences from the supplement of paper PMC5998384.

In data set [1] the test system is HeLa Kyoto. The data set can be described thus: solubility in G1/S (NP-40 vs SDS abundance) (log2 ratio); higher = more soluble. The conditions noted are these: cell cycle stage: G1/S.
The test system of data set [2] is HeLa Kyoto. The data set can be described thus: melting temperature (median over replicates), in situ; higher = more thermally stable.
Data set [3] deals with HeLa Kyoto. The data set can be described thus: solubility change mitosis vs G1/S (difference of NP-40 vs SDS log2 ratios) (log2 ratio difference); higher = more soluble in mitosis.
Data set [4] relates to HeLa Kyoto. The data set can be described thus: thermal stability score vs G1/S (z-score of summed log2 fold changes over temperatures); higher = more thermally stable than in G1/S.
The mark [5] stands for this setting: cell cycle stage: early G1 (4.5 h after nocodazole release).
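Wherever melting temperature (median over replicates), in situ is given: HeLa Kyoto cells synchronized by double thymidine or nocodazole block, proteins quantified by TMT10plex mass spectrometry, three independent biological replicates.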
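Wherever solubility change mitosis vs G1/S (difference of NP-40 vs SDS log2 ratios) is given: synchronized HeLa Kyoto cells (double thymidine block for G1/S, nocodazole release for mitosis), protein amounts in NP-40 versus SDS lysates quantified by mass spectrometry, three biological replicates.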
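Wherever solubility in G1/S (NP-40 vs SDS abundance) is given: HeLa Kyoto cells arrested at G1/S by double thymidine block, proteins quantified by TMT10plex mass spectrometry in mild NP-40 versus SDS extracts, three biological replicates.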
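Wherever thermal stability score vs G1/S (z-score of summed log2 fold changes over temperatures) is given: synchronized HeLa Kyoto cells, proteins quantified by TMT10plex mass spectrometry, three biological replicates, mitosis taken 0.5 h after nocodazole release, G1/S directly after double thymidine block.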

For the sequence “MFSFEGDFKTRPKVSLGGASRKEEKASLLHRTQEERRKREEERRRLKNAIIIQSFIRGYRDRKQQYSIQRSAFDRCATLSQSGGAFPIANGPNLTLLVRQLLFFYKQNEDSKRLIWLYQNLIKHSSLFVKQLDGSERLTCLFQIKRLMSLCCRLLQNCNDDSLNVALPMRMLEVFSSENTYLPVLQDASYVVSVIEQILHYMIHNGYYRSLYLLINSKLPSSIEYSDLSRVPIAKILLENVLKPLHFTYNSCPEGARQQVFTAFTEEFLAAPFTDQIFHFIIPALADAQTVFPYEPFLNALLLIESRCSRKSGGAPWLFYFVLTVGENYLGALSEEGLLVYLRVLQTFLSQLPVSPASASCHDSASDSEEESEEADKPSSPEDGRLSVSYITEECLKKLDTKQQTNTLLNLVWRDSASEEVFTTMASVCHTLMVQHRMMVPKVRLLYSLAFNARFLRHLWFLISSMSTRMITGSMVPLLQVISRGSPMSFEDSSRIIPLFYLFSSLFSHSLISIHDNEFFGDPIEVVGQRQSSMMPFTLEELIMLSRCLRDACLGIIKLAYPETKPEVREEYITAFQSIGVTTSSEMQQCIQMEQKRWIQLFKVITNLVKMLKSRDTRRNFCPPNHWLSEQEDIKADKVTQLYVPASRHVWRFRRMGRIGPLQSTLDVGLESPPLSVSEERQLAVLTELPFVVPFEERVKIFQRLIYADKQEVQGDGPFLDGINVTIRRNYIYEDAYDKLSPENEPDLKKRIRVHLLNAHGLDEAGIDGGGIFREFLNELLKSGFNPNQGFFKTTNEGLLYPNPAAQMLVGDSFARHYYFLGRMLGKALYENMLVELPFAGFFLSKLLGTSADVDIHHLASLDPEVYKNLLFLKSYEDDVEELGLNFTVVNNDLGEAQVVELKFGGKDIPVTSANRIAYIHLVADYRLNRQIRQHCLAFRQGLANVVSLEWLRMFDQQEIQVLISGAQVPISLEDLKSFTNYSGGYSADHPVIKVFWRVVEGFTDEEKRKLLKFVTSCSRPPLLGFKELYPAFCIHNGGSDLERLPTASTCMNLLKLPEFYDETLLRSKLLYAIECAAGFELS [UBE3C]”, the “solubility in G1/S (log2)” value in the data set with HeLa Kyoto [1] is -0.181. In addition, the figures for the melting temperature in the data set with HeLa Kyoto [2] (cell cycle stage: G1/S) and in the data set on HeLa Kyoto [2] (cell cycle stage: mitosis) were 50.3 °C and 50.1 °C, respectively. In addition, the “solubility change mitosis (log2)” value with HeLa Kyoto [3] is -0.263. For the same sequence, the thermal stability score with HeLa Kyoto [4] (setting [5]) is 0.499; with HeLa Kyoto [4] (cell cycle stage: mitosis), 0.996.
As to “MFSWVSKDARRKKEPELFQTVAEGLRQLYAQKLLPLEEHYRFHEFHSPALEDADFDNKPMVLLVGQYSTGKTTFIRHLIEQDFPGMRIGPEPTTDSFIAVMHGPTEGVVPGNALVVDPRRPFRKLNAFGNAFLNRFMCAQLPNPVLDSISIIDTPGILSGEKQRISRGYDFAAVLEWFAERVDRIILLFDAHKLDISDEFSEVIKALKNHEDKIRVVLNKADQIETQQLMRVYGALMWSLGKIINTPEVVRVYIGSFWSHPLLIPDNRKLFEAEEQDLFKDIQSLPRNAALRKLNDLIKRARLAKVHAYIISSLKKEMPNVFGKESKKKELVNNLGEIYQKIEREHQISPGDFPSLRKMQELLQTQDFSKFQALKPKLLDTVDDMLANDIARLMVMVRQEESLMPSQVVKGGAFDGTMNGPFGHGYGEGAGEGIDDVEWVVGKDKPTYDEIFYTLSPVNGKITGANAKKEMVKSKLPNTVLGKIWKLADVDKDGLLDDEEFALANHLIKVKLEGHELPADLPPHLVPPSKRRHE [EHD1]”, the “solubility in G1/S (log2)” value in the data set with HeLa Kyoto [1] came to 0.171. The melting temperature was found to be 50.6 °C with HeLa Kyoto [2] (cell cycle stage: G1/S) and 50.5 °C in the data set with HeLa Kyoto [2] (cell cycle stage: mitosis). Moreover, the “solubility change mitosis (log2)” value in the data set with HeLa Kyoto [3] is -0.0648. The thermal stability score with HeLa Kyoto [4] (setting [5]) is 2.25; with HeLa Kyoto [4] (cell cycle stage: mitosis), 2.22.
Turning to “MFVELNNLLNTTPDRAEQGKLTLLCDAKTDGSFLVHHFLSFYLKANCKVCFVALIQSFSHYSIVGQKLGVSLTMARERGQLVFLEGLKSAVDVVFQAQKEPHPLQFLREANAGNLKPLFEFVREALKPVDSGEARWTYPVLLVDDLSVLLSLGMGAVAVLDFIHYCRATVCWELKGNMVVLVHDSGDAEDEENDILLNGLSHQSHLILRAEGLATGFCRDVHGQLRILWRRPSQPAVHRDQSFTYQYKIQDKSVSFFAKGMSPAVL [ELP6]”, the “solubility in G1/S (log2)” value in the data set on HeLa Kyoto [1] was -0.082. Also, the figures for the melting temperature with HeLa Kyoto [2] (cell cycle stage: G1/S) and in the data set with HeLa Kyoto [2] (cell cycle stage: mitosis) were 55.1 °C and 54.4 °C, respectively. Besides, the “solubility change mitosis (log2)” value with HeLa Kyoto [3] was -0.245. The values for the thermal stability score in the data set on HeLa Kyoto [4] (setting [5]) and with HeLa Kyoto [4] (cell cycle stage: mitosis) were -0.431 and -1.3, respectively.
“MFVPRSLKIKRNANDDGKSCVAKIIKPDPEDLQLDKSRDVPVDAVATEAATIDRHISESCPFPSPGGQLAEVHSVSPEQGAKDSHPSEEPVKSFSKTQRWAEPGEPICVVCGRYGEYICDKTDEDVCSLECKAKHLLQVKEKEEKSKLSNPQKADSEPESPLNASYVYKEHPFILNLQEDQIENLKQQLGILVQGQEVTRPIIDFEHCSLPEVLNHNLKKSGYEVPTPIQMQMIPVGLLGRDILASADTGSGKTAAFLLPVIMRALFESKTPSALILTPTRELAIQIERQAKELMSGLPRMKTVLLVGGLPLPPQLYRLQQHVKVIIATPGRLLDIIKQSSVELCGVKIVVVDEADTMLKMGFQQQVLDILENIPNDCQTILVSATIPTSIEQLASQLLHNPVRIITGEKNLPCANVRQIILWVEDPAKKKKLFEILNDKKLFKPPVLVFVDCKLGADLLSEAVQKITGLKSISIHSEKSQIERKNILKGLLEGDYEVVVSTGVLGRGLDLISVRLVVNFDMPSSMDEYVHQIGRVGRLGQNGTAITFINNNSKRLFWDIAKRVKPTGSILPPQLLNSPYLHDQKRKEQQKDKQTQNDLVTGANLMDIIRKHDKSNSQK [DDX59]”: the “solubility in G1/S (log2)” value in the data set on HeLa Kyoto [1] stood at 0.419. Also, the figures for the melting temperature in the data set with HeLa Kyoto [2] (cell cycle stage: G1/S) and in the data set with HeLa Kyoto [2] (cell cycle stage: mitosis) were 50.8 °C and 50.3 °C, respectively. In addition, the “solubility change mitosis (log2)” value in the data set on HeLa Kyoto [3] is -0.18. For the same sequence, the figures for the thermal stability score in the data set with HeLa Kyoto [4] (setting [5]) and with HeLa Kyoto [4] (cell cycle stage: mitosis) were 1.04 and 1.76, respectively.
On to “MGAFLDKPKTEKHNAHGAGNGLRYGLSSMQGWRVEMEDAHTAVVGIPHGLEDWSFFAVYDGHAGSRVANYCSTHLLEHITTNEDFRAAGKSGSALELSVENVKNGIRTGFLKIDEYMRNFSDLRNGMDRSGSTAVGVMISPKHIYFINCGDSRAVLYRNGQVCFSTQDHKPCNPREKERIQNAGGSVMIQRVNGSLAVSRALGDYDYKCVDGKGPTEQLVSPEPEVYEILRAEEDEFIILACDGIWDVMSNEELCEYVKSRLEVSDDLENVCNWVVDTCLHKGSRDNMSIVLVCFSNAPKVSDEAVKKDSELDKHLESRVEEIMEKSGEEGMPDLAHVMRILSAENIPNLPPGGGLAGKRNVIEAVYSRLNPHRESDGASDEAEESGSQGKLVEALRQMRINHRGNYRQLLEEMLTSYRLAKVEGEESPAEPAATATSSNSDAGNPVTMQESHTESESGLAELDSSNEDAGTKMSGEKI [PPM1B]”, for which the “solubility in G1/S (log2)” value in the data set with HeLa Kyoto [1] is -0.164. For the same sequence, the melting temperature is 52.9 °C with HeLa Kyoto [2] (cell cycle stage: G1/S) and 52.6 °C in the data set with HeLa Kyoto [2] (cell cycle stage: mitosis). In addition, in the data set with HeLa Kyoto [3], the “solubility change mitosis (log2)” value was 0.0659. The thermal stability score was 0.54 in the data set on HeLa Kyoto [4] (setting [5]) and -0.803 in the data set with HeLa Kyoto [4] (cell cycle stage: mitosis).
